First the molecules themselves.
T1: human GIP receptor (human, UniProt P48546 22-466)
T1 sequence (looked up): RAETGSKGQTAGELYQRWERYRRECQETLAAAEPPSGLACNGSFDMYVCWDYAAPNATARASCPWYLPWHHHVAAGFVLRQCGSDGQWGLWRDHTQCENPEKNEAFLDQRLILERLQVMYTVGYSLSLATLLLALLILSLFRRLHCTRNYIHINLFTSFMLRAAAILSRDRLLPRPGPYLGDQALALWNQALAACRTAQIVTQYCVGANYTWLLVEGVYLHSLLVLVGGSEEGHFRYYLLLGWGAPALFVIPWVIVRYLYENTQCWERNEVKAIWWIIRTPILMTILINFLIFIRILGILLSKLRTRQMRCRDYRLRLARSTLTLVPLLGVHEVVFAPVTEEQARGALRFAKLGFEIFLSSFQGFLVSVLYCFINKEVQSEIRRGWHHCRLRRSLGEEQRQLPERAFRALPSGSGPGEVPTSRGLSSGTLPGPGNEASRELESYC

B1: AT363 (peptide)
peptide: EGTFISDYSIAMDKIK(C16 diacid)QQDFVNWLLAQKGKKNDWKHNITQ-OH
modifications: N-terminus assumed
SMILES: CC[C@H](C)[C@H](NC(=O)[C@H](CO)NC(=O)[C@H](Cc1ccc(O)cc1)NC(=O)[C@H](CC(=O)O)NC(=O)[C@H](CO)NC(=O)[C@@H](NC(=O)[C@H](Cc1ccccc1)NC(=O)[C@@H](NC(=O)CNC(=O)[C@@H](N)CCC(=O)O)[C@@H](C)O)[C@@H](C)CC)C(=O)N[C@@H](C)C(=O)N[C@@H](CCSC)C(=O)N[C@@H](CC(=O)O)C(=O)N[C@@H](CCCCN)C(=O)N[C@H](C(=O)N[C@@H](CCCCNC(=O)CCCCCCCCCCCCCCC(=O)O)C(=O)N[C@@H](CCC(N)=O)C(=O)N[C@@H](CCC(N)=O)C(=O)N[C@@H](CC(=O)O)C(=O)N[C@@H](Cc1ccccc1)C(=O)N[C@H](C(=O)N[C@@H](CC(N)=O)C(=O)N[C@@H](Cc1c[nH]c2ccccc12)C(=O)N[C@@H](CC(C)C)C(=O)N[C@@H](CC(C)C)C(=O)N[C@@H](C)C(=O)N[C@@H](CCC(N)=O)C(=O)N[C@@H](CCCCN)C(=O)NCC(=O)N[C@@H](CCCCN)C(=O)N[C@@H](CCCCN)C(=O)N[C@@H](CC(N)=O)C(=O)N[C@@H](CC(=O)O)C(=O)N[C@@H](Cc1c[nH]c2ccccc12)C(=O)N[C@@H](CCCCN)C(=O)N[C@@H](Cc1c[nH]cn1)C(=O)N[C@@H](CC(N)=O)C(=O)N[C@H](C(=O)N[C@H](C(=O)N[C@@H](CCC(N)=O)C(=O)O)[C@@H](C)O)[C@@H](C)CC)C(C)C)[C@@H](C)CC
B2: AT365 (peptide)
peptide: TFISDYKIAMDKIHQQDFVNWLLAQKGKK
HELM: PEPTIDE1{T.F.I.S.D.Y.K.I.A.M.D.K.I.H.Q.Q.D.F.V.N.W.L.L.A.Q.K.G.K.K}|PEPTIDE2{[O=C(O)CCCCCCCCCCCCCCC(=O)[*:2]].[gGlu]}$PEPTIDE1,PEPTIDE2,7:R3-2:R2$$$V2.0; N-terminus assumed
SMILES: CC[C@H](C)[C@H](NC(=O)[C@H](CCCCNC(=O)CC[C@H](NC(=O)CCCCCCCCCCCCCCC(=O)O)C(=O)O)NC(=O)[C@H](Cc1ccc(O)cc1)NC(=O)[C@H](CC(=O)O)NC(=O)[C@H](CO)NC(=O)[C@@H](NC(=O)[C@H](Cc1ccccc1)NC(=O)[C@@H](N)[C@@H](C)O)[C@@H](C)CC)C(=O)N[C@@H](C)C(=O)N[C@@H](CCSC)C(=O)N[C@@H](CC(=O)O)C(=O)N[C@@H](CCCCN)C(=O)N[C@H](C(=O)N[C@@H](Cc1c[nH]cn1)C(=O)N[C@@H](CCC(N)=O)C(=O)N[C@@H](CCC(N)=O)C(=O)N[C@@H](CC(=O)O)C(=O)N[C@@H](Cc1ccccc1)C(=O)N[C@H](C(=O)N[C@@H](CC(N)=O)C(=O)N[C@@H](Cc1c[nH]c2ccccc12)C(=O)N[C@@H](CC(C)C)C(=O)N[C@@H](CC(C)C)C(=O)N[C@@H](C)C(=O)N[C@@H](CCC(N)=O)C(=O)N[C@@H](CCCCN)C(=O)NCC(=O)N[C@@H](CCCCN)C(=O)N[C@@H](CCCCN)C(=O)O)C(C)C)[C@@H](C)CC
B3: AT364 (peptide)
peptide: EGTFISDYSIAMDKIK(C16 diacid)QQDFVNWLLAQKGPSSGAPPPS-OH
modifications: N-terminus assumed
SMILES: CC[C@H](C)[C@H](NC(=O)[C@H](CO)NC(=O)[C@H](Cc1ccc(O)cc1)NC(=O)[C@H](CC(=O)O)NC(=O)[C@H](CO)NC(=O)[C@@H](NC(=O)[C@H](Cc1ccccc1)NC(=O)[C@@H](NC(=O)CNC(=O)[C@@H](N)CCC(=O)O)[C@@H](C)O)[C@@H](C)CC)C(=O)N[C@@H](C)C(=O)N[C@@H](CCSC)C(=O)N[C@@H](CC(=O)O)C(=O)N[C@@H](CCCCN)C(=O)N[C@H](C(=O)N[C@@H](CCCCNC(=O)CCCCCCCCCCCCCCC(=O)O)C(=O)N[C@@H](CCC(N)=O)C(=O)N[C@@H](CCC(N)=O)C(=O)N[C@@H](CC(=O)O)C(=O)N[C@@H](Cc1ccccc1)C(=O)N[C@H](C(=O)N[C@@H](CC(N)=O)C(=O)N[C@@H](Cc1c[nH]c2ccccc12)C(=O)N[C@@H](CC(C)C)C(=O)N[C@@H](CC(C)C)C(=O)N[C@@H](C)C(=O)N[C@@H](CCC(N)=O)C(=O)N[C@@H](CCCCN)C(=O)NCC(=O)N1CCC[C@H]1C(=O)N[C@@H](CO)C(=O)N[C@@H](CO)C(=O)NCC(=O)N[C@@H](C)C(=O)N1CCC[C@H]1C(=O)N1CCC[C@H]1C(=O)N1CCC[C@H]1C(=O)N[C@@H](CO)C(=O)O)C(C)C)[C@@H](C)CC
B4: AT366 (peptide)
peptide: TFISDYKIAMDKIHQQDFVNWLLAQKGKKNDW
HELM: PEPTIDE1{T.F.I.S.D.Y.K.I.A.M.D.K.I.H.Q.Q.D.F.V.N.W.L.L.A.Q.K.G.K.K.N.D.W}|PEPTIDE2{[O=C(O)CCCCCCCCCCCCCCC(=O)[*:2]].[gGlu]}$PEPTIDE1,PEPTIDE2,7:R3-2:R2$$$V2.0; N-terminus assumed
SMILES: CC[C@H](C)[C@H](NC(=O)[C@H](CCCCNC(=O)CC[C@H](NC(=O)CCCCCCCCCCCCCCC(=O)O)C(=O)O)NC(=O)[C@H](Cc1ccc(O)cc1)NC(=O)[C@H](CC(=O)O)NC(=O)[C@H](CO)NC(=O)[C@@H](NC(=O)[C@H](Cc1ccccc1)NC(=O)[C@@H](N)[C@@H](C)O)[C@@H](C)CC)C(=O)N[C@@H](C)C(=O)N[C@@H](CCSC)C(=O)N[C@@H](CC(=O)O)C(=O)N[C@@H](CCCCN)C(=O)N[C@H](C(=O)N[C@@H](Cc1c[nH]cn1)C(=O)N[C@@H](CCC(N)=O)C(=O)N[C@@H](CCC(N)=O)C(=O)N[C@@H](CC(=O)O)C(=O)N[C@@H](Cc1ccccc1)C(=O)N[C@H](C(=O)N[C@@H](CC(N)=O)C(=O)N[C@@H](Cc1c[nH]c2ccccc12)C(=O)N[C@@H](CC(C)C)C(=O)N[C@@H](CC(C)C)C(=O)N[C@@H](C)C(=O)N[C@@H](CCC(N)=O)C(=O)N[C@@H](CCCCN)C(=O)NCC(=O)N[C@@H](CCCCN)C(=O)N[C@@H](CCCCN)C(=O)N[C@@H](CC(N)=O)C(=O)N[C@@H](CC(=O)O)C(=O)N[C@@H](Cc1c[nH]c2ccccc12)C(=O)O)C(C)C)[C@@H](C)CC

Where no end group is shown, it is not given here. The star is where a group is joined. C16 diacid = O=C(O)CCCCCCCCCCCCCCC(=O)*

The first assay has as its target T1, human GIP receptor. The experiment in a line: cell-based or functional assay.
On to B1, for which the “cAMP agonism Emax” value worked out at 7, the “cAMP antagonism” value was 5 nM, the “cAMP antagonism % inhib” value amounted to 82% and the cAMP antagonism log was -8.3 log M.

In the case of B2, the “cAMP antagonism” value is 6 nM, the “cAMP antagonism % inhib” value came to 100% and the cAMP antagonism log is -8.2 log M.

For B3, the “cAMP antagonism” value amounted to 1 nM, the “cAMP antagonism % inhib” value worked out at 100% and the cAMP antagonism log is -8.9 log M.

B4: the “cAMP antagonism” value is 3 nM, the “cAMP antagonism % inhib” value worked out at 100% and the cAMP antagonism log was -8.5 log M.

The target of a further assay is T1, human GIP receptor. The experiment in a line: cell-based or functional assay. This is another data set of the same source.
In the case of B1, the “cAMP agonism % Emax” value came to 0%, the “cAMP antagonism” value was determined as 12.6 nM, the “cAMP antagonism % inhib” value worked out at 90% and the “cAMP antagonism pIC50” value amounted to 7.9.

Consider B2, for which the “cAMP agonism % Emax” value stood at 0%, the “cAMP antagonism” value worked out at 13.6 nM, the “cAMP antagonism % inhib” value turned out to be 100% and the “cAMP antagonism pIC50” value stood at 7.9.

For B3, the “cAMP agonism % Emax” value turned out to be 0%, the “cAMP antagonism” value is 13.8 nM, the “cAMP antagonism % inhib” value worked out at 87% and the “cAMP antagonism pIC50” value was 7.9.

Consider B4, for which the “cAMP agonism % Emax” value was determined as 0%, the “cAMP antagonism” value was 17.8 nM, the “cAMP antagonism % inhib” value was found to be 100% and the “cAMP antagonism pIC50” value was determined as 7.8.

Values taken from patent US20220298218A1 (ANTAG THERAPEUTICS, published 2022).
